From publication PMC11546553, “Chitin Translocation Is Functionally Coupled with Synthesis in Chitin Synthase” (International Journal of Molecular Sciences, 2024)

Target: the molecule itself
Assay: cryo-EM structure; purified PsCHS at 3 mg/mL in digitonin, incubated with 0.5 mM UDP-GlcNAc and 1 mM Mn2+ for 15 min or 40 min at 25 °C before freezing; UDP/Mn2+-bound state resolved for both samples

B1: Phytophthora sojae chitin synthase 1 (enzyme)
chain: MSGAPPPSSGFAPRSYGQQPLSHAPRSSMMSVEYDGIPLPPPSIRSCGSQQYVTSYIPTGAAFPPSSVQDMISSMKSYASATDLVRTYSEIPSVEEALSTLDRAAAALNARRYRDALKLYLEGGYAMANVAERQANPKICNLLTSKGFETLNWCARLCDWIEGRIKEKHPRPGVHKVGIPVSNWDEDWVGPFMDEEEARRMWYTPVYCPHPIDFSNLGYRLRCVETGRRPRLMICITMYNEGPQQLKATLKKLANNLAYLKEQMPGDEKSLTGAFAGDDVWQNVLVCIVADGREQVHPKTLDYLEAIGLYDEDLLTINSAGIGAQCHLFEHTLQLSVNGKCLLPIQTVFALKENKASKLDSHHWYFNAFAEQIQPEYTAVMDVGTMLTKSALYHLLFAFERNHQIGGACGQLTVDNPFENLSNWVISAQHFEYKISNILDKSLESCFGFISVLPGAFSAYRYEAIRGAPLDAYFQTLNIELDVLGPFIGNMYLAEDRILSFEVVARKNCNWTMHYVKDAVARTDVPHDLVGLISQRKRWLNGAFFATLFSIWNWGRIYSESKHTFVRKMAFLVFYVYHLLYTAFGFFLPANLYLALFFIVFQGFQQNRLEFIDTSEYSQTVLDCAVYIYNFSYLFGLLMLIIIGLGNNPKHMKLTYYFVGAVFGLMMMLSSLVGAGIFFSTPATVHSIVVSILTVGVYFIASALHGEVHHIFMTFTHYTALIPSFVNIFTIYSFCNLQDLSWGTKGLHDDPLLAASLDETEKGDFKDVIAKRRALEELRREEKERVENRKKNFEAFRTNVLLTWAFSNLIFALFVVYFASSSTYMPVLYIFVASLNTCRLLGSIGHWVYIHTEGLRGRVIDKSECGNGTGRYPQNSYVQLEEHYAALAEDQRTYASGRTNASVRTVNDVSSAA
notes: Phytophthora sojae chitin synthase 1 (PsCHS1), the PsCHS gene in pcDNA3.1; the final models lack residues 1-22, stretches within 40-90, 738-761 and 860-925; also called PsCHS; PsCHS1; source: HEK293F cells, transfected (pcDNA3.1), purified (digitonin solubilisation, Ni-NTA, Superose 6 Increase SEC)
  stoichiometry N: 2
